B1: ZFAND5/ZNF216, recombinant wild type (natural protein)
chain: MAQETNQTPGPMLCSTGCGFYGNPRTNGMCSVCYKEHLQRQQNSGRMSPMGTASGSNSPTSDSASVQRADTSLNNCEGAAGSTSEKSRNVPVAALPVTQQMTEMSISREDKITTPKTEVSEPVVTQPSPSVSQPSTSQSEEKAPELPKPKKNRCFMCRKKVGLTGFDCRCGNLFCGLHRYSDKHNCPYDYKAEAAAKIRKENPVVVAEKIQRI
B2: His6-SNAP-ZFAND5wt (natural protein)
chain: B1 chain
modifications: SNAP tag labelled with SNAP-Surface 649 (fluorescent form) or with SNAP-Biotin (immobilised form)

Assays:
[1] = biological target: human 26S proteasome (human | human (endogenous in HEK293)) (UniProt O00487)
[2] = biological target: human 26S proteasome (human | human (endogenous in HEK293)) (UniProt O00487); remark: listed apart in the source
[3] = biological target: human 26S proteasome (human | human (endogenous in HEK293)) (UniProt O00487); assay: single-molecule TIRF microscopy

| Binder | increase of the initial (phase I) degradation rate of ubiquitylated cycB-cpGFP [1] [%] | increase of the late (phase II) degradation rate of ubiquitylated cycB-cpGFP [1] [%] | stimulation of peptide hydrolysis of purified 26S proteasome [2] [fold] | dwell-time constant, first (short-binding) exponential mode [3] [ms] | dwell-time constant, second (long-binding) exponential mode [3] [ms] |
| --- | --- | --- | --- | --- | --- |
| B1 | 24 | 71 | < 10 |  |  |
| B2 |  |  |  | 50 | 614 |

Reference: paper doi:10.1101/2023.05.09.540094
